Literature values, collected in patent publication US20140011241A1, “Method enabling isomerization process flows at lower pH, lower temperature, and in the presence of certain inhibiting compounds by using the xylose isomerase enzyme from the microorganism Fulvimarina pelagi” (priority 2011, published 2014).

Test system: xylose isomerase

B1: xylose isomerase from Thermus thermophilus: xylose isomerase from Thermus thermophilus and mutants derived from it (U.S. Pat. No. 6,475,768) (protein, UniProt P26997 1-387, looked up)
Xylose isomerase: MYEPKPEHRFTFGLWTVGNVGRDPFGDAVRERLDPVYVVHKLAELGAYGVNLHDEDLIPRGTPPQERDQIVRRFKKALDETGLKVPMVTANLFSDPAFKDGAFTSPDPWVRAYALRKSLETMDLGAELGAEIYVVWPGREGAEVEATGKARKVWDWVREALNFMAAYAEDQGYGYRFALEPKPNEPRGDIYFATVGSMLAFIHTLDRPERFGLNPEFAHETMAGLNFVHAVAQALDAGKLFHIDLNDQRMSRFDQDLRFGSENLKAAFFLVDLLESSGYQGPRHFDAHALRTEDEEGVWAFARGCMRTYLILKERAEAFREDPEVKELLAAYYQEDPAALALLGPYSREKAEALKRAELPLEAKRRRGYALERLDQLAVEYLLGVRG
  activity at low temperature: very low
  pH at which active: 6
